The target of this assay is His-UPCP (HIV | human). Briefly: MST.

B1: Flag-PTBP1 (natural protein)
chain: not shown
Consider B1, for which the affinity, expressed as Kd, was 4.63 µM.

Broadly, the Kd is a measure of binding affinity in units of concentration. Read a low Kd as a tighter complex.

The values are drawn from paper PMC10154249 (2023).
